No end group written: not given here.

Holding throughout (assay): cell-based or functional assay
For assay [1], the target named is T1, human calcium-sensing receptor (hCaSR), full length (human, UniProt Q8TE23 20-839).
T1 sequence: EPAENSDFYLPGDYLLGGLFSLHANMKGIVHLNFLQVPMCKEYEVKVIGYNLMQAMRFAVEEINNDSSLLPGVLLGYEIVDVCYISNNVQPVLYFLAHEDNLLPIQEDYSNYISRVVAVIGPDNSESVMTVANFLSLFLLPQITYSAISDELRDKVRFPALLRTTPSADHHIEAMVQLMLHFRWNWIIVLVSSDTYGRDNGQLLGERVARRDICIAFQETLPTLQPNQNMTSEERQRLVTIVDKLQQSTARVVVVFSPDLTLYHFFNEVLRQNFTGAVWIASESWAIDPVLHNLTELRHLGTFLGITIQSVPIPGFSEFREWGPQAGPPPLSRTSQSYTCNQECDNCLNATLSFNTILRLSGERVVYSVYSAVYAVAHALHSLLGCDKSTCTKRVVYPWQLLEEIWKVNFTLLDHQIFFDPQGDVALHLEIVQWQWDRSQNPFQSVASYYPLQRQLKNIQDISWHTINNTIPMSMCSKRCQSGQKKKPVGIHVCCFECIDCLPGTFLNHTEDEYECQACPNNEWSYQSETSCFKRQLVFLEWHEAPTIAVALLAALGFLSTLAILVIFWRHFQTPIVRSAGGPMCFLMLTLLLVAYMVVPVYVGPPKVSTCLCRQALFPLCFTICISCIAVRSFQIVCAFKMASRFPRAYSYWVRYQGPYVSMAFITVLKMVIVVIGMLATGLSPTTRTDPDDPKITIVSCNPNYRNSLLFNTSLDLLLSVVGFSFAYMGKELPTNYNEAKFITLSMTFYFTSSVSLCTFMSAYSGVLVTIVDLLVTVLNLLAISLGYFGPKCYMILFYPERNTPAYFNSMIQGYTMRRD

The target in assay [2] is human T1R2/T1R3 sweet receptor heterodimer (wildtype) (human, UniProt Q8TE23 20-839; Q7RTX0 21-852).
Assay [3] concerns the target T2, CSR:T1R2/CSR:T1R3 chimeric heterodimer (human).
T2 chain 1: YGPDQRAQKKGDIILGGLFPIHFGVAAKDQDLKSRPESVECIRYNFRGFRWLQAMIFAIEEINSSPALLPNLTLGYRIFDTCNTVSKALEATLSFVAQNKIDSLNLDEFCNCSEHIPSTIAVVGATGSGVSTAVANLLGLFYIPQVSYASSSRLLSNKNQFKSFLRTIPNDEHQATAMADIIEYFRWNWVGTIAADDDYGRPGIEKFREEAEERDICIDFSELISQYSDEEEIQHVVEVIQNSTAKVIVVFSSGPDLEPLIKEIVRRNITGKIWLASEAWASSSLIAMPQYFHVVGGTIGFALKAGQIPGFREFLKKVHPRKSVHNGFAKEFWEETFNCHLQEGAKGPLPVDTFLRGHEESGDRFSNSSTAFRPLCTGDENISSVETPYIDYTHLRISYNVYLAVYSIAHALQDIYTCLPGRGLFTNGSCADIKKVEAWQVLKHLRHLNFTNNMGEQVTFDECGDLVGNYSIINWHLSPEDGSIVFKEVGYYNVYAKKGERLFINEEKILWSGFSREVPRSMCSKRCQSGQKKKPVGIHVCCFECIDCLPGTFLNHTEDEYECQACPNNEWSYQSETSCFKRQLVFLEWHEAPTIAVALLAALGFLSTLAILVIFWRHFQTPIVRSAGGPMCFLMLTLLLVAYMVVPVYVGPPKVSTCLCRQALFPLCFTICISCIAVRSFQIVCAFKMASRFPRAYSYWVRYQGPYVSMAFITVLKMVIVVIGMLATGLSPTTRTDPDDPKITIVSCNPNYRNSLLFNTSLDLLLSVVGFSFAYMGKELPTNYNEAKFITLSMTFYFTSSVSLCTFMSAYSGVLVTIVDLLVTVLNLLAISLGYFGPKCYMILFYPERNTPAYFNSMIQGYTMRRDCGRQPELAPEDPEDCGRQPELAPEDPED
T2 chain 2: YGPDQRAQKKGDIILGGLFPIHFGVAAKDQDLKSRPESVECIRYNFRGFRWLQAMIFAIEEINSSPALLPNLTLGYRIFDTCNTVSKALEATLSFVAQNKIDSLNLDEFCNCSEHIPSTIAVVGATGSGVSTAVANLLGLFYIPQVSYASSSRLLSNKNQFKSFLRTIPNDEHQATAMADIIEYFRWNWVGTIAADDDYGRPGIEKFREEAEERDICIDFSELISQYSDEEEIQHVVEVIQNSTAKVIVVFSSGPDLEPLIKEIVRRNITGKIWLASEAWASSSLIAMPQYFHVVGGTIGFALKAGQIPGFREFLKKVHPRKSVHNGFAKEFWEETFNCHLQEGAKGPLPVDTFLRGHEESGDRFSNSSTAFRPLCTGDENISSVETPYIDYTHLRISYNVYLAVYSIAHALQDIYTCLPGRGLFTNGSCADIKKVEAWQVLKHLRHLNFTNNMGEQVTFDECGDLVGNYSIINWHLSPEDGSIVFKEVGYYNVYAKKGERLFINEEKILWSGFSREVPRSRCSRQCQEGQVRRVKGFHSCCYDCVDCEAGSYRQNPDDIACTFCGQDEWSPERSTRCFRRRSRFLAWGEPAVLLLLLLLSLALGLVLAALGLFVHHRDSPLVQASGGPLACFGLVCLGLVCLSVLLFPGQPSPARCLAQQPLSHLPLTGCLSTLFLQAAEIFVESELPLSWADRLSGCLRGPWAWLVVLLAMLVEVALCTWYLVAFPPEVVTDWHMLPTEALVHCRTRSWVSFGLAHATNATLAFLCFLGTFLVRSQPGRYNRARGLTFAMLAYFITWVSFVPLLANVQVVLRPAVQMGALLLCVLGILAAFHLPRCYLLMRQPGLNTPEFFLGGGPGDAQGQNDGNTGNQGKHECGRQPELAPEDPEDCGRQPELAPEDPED

human T1R2/T1R3 sweet receptor heterodimer (wildtype), sequence (Q7RTX0 21-852 C757R limits assumed, one chain of several): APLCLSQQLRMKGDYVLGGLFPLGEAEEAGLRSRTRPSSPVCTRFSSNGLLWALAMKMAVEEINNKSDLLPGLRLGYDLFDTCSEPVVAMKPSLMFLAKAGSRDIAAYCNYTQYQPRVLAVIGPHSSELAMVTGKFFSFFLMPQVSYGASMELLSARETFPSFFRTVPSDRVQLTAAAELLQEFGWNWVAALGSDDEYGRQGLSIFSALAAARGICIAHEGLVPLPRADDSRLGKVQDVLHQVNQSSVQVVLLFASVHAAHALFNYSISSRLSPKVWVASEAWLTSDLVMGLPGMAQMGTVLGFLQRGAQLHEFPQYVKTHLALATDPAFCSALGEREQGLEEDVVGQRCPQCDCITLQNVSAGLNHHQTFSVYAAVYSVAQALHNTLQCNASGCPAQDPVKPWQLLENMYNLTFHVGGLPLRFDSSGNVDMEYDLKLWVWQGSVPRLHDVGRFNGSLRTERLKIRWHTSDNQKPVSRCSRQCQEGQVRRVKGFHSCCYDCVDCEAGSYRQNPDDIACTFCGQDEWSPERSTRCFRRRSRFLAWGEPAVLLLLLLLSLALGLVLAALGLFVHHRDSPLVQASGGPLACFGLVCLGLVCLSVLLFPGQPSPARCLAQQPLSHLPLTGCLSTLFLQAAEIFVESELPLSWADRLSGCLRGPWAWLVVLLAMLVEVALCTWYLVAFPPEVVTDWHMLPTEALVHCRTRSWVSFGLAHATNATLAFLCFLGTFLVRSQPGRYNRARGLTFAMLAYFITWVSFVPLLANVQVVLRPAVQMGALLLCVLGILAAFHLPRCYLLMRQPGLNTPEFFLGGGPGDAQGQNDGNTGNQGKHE

As for Asp-Phe-OMe [Aspartame (aspartyl-phenylalanine-1-methyl ester, a dipeptide)], the “net increase in fluorescence over baseline (Fluo-4 calcium assay, AVG of six replicates), aspartame 0.85 mM” value amounted to 41 RFU in assay [1], 531 RFU in assay [2] and 72 RFU in assay [3].
